# Data from doi:10.1101/2020.06.10.144725 (bioRxiv, 2020).
# T1: Lip-DVL2-PDZ (human, UniProt O14641 285-373)
# T1 sequence: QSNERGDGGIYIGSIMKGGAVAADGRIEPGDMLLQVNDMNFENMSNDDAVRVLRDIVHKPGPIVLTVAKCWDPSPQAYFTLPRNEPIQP
# B1: RFP-NKD1-EF (domain or fragment)
# chain: EPCPGSKKQLKFEELQCDVSMEEDSRQEWTFTLYDFDNNGKVTREDITSLLHTIYEVVDSSVNHSPTSSKMLRVKLTVAPD
# Experiments:
# [1] = molecular target: Lip-NKD-HisC (lipoyl domain-tagged HisC of NKD1) (human (identical sequence in mouse and human)) (UniProt Q969G9); assay: co-aggregation assay
# Sequence of Lip-NKD-HisC (lipoyl domain-tagged HisC of NKD1) (human (identical sequence in mouse and human)) (Q969G9 whole entry, the tested form may be a part): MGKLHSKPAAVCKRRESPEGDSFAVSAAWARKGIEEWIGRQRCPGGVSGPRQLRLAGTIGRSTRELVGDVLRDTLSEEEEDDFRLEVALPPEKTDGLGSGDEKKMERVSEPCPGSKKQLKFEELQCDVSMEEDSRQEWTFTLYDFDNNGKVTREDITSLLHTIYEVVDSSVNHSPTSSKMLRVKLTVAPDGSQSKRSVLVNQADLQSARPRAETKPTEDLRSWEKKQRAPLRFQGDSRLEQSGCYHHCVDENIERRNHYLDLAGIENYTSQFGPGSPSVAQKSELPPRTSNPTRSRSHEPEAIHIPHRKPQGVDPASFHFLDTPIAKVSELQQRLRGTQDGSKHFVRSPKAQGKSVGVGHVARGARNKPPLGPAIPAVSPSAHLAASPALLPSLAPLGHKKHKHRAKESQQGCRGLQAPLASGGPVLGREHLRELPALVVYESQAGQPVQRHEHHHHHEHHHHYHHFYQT
# [2] = molecular target: Lip-NKD-HisC (lipoyl domain-tagged HisC of NKD1) (human (identical sequence in mouse and human)) (UniProt Q969G9); assay: SEC
# [3] = molecular target: T1, Lip-DVL2-PDZ; assay: ITC
# [4] = molecular target: the molecule itself; assay: SEC-MALS
molecule,measurement,setting,value
MBP-NKD-HisC (maltose-binding protein-tagged HisC of NKD1) (from UniProt Q969G9 1-470) (domain or fragment),stoichiometry N,[1],10
Lip-NKD-HisC (lipoyl domain-tagged HisC of NKD1) (from UniProt Q969G9 1-470) (domain or fragment),stoichiometry N,[2],15 to 25
MBP-Axin2-HisC (domain or fragment),molecules per core (molecules per core),[1],< 4
MBP-Axin1-HisC (from UniProt O15169 1-862) (domain or fragment),molecules per core (molecules per core),[1],< 5
B1,Kd,[3],3.2 ± 0.2 µM
same,stoichiometry N,[4],2
